The values that follow come from publication PMC4262935.

In assay [1] the target is actin in thin filaments (mouse (endogenous in C57BL/6 ventricular myofibrils)) (UniProt P68033).
The target is the same in assay [2]. The source holds these as a separate data set.

Read-outs that look alike come from different tables or passages of the source.

For the substance “myosin cross-bridge (from UniProt Q02566 1-1938; P09542 1-204; P51667 1-166) (complex)”, the results for the k3 (rate of dissociation of XBs from thin filaments, with ATP) in assay [1] and in assay [2] were 0.061 s⁻¹ and 0.0492 s⁻¹, respectively.
